Experimental data published in patent US20050037969A1 (ARBOR VITA, published 2005).
Ends that are not written are not given here. * marks the point of attachment. Biotin = O=C1N[C@H]2[C@H](CS[C@H]2CCCCC(=O)*)N1

T1: GEF PDZ-GST fusion protein (Homo sapiens (Human), UniProt Q8TEU7 293-400)
T1 construct: The label GEF is not explained in the excerpts
T1 sequence: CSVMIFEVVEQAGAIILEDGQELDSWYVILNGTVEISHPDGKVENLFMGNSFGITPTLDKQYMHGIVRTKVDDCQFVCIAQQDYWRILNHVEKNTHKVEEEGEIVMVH

T2: GST-KIAA0303 PDZ domain fusion protein (Homo sapiens (Human), UniProt O15021 1138-1228)
T2 construct: also called K303; not shown: glutathione S-transferase encoded by vector pGEX-3X (Pharmacia)
T2 sequence: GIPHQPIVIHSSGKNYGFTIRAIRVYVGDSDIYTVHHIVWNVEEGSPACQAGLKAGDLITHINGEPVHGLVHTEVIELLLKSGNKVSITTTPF

T3: GST-DVL1 PDZ domain fusion protein (human, UniProt O14640 247-339)
T3 construct: also called human dishevelled segment polarity protein homolog; not shown: glutathione S-transferase encoded by vector pGEX-3X (Pharmacia)
T3 sequence: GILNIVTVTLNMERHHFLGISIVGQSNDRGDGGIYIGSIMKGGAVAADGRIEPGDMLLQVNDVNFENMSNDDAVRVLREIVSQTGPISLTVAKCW

T4: GST-TAX-IP40 PDZ domain fusion protein (human, UniProt Q6B4M5 150-252 (rat entry))
T4 construct: also called TAX40; not shown: glutathione S-transferase encoded by vector pGEX-3X (Pharmacia)
T4 sequence: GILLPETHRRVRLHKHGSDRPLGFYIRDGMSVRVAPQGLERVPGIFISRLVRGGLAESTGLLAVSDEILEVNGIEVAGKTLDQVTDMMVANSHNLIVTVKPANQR

T5: KIAA0807 (PDZ domain)-GST fusion protein (human, UniProt Q6P0Q8 1104-1192)
T5 construct: also called K807; KIAA807; not shown: glutathione S-transferase encoded by vector pGEX-3X (Pharmacia)
T5 sequence: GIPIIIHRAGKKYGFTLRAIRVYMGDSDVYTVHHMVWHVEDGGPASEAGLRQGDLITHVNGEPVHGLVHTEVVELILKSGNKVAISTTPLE

T6: TAX-IP33 PDZ-GST fusion protein (Homo sapiens (Human), UniProt O14910 103-193)
T6 construct: Order of GST and PDZ part and limits not seen in the excerpts
T6 sequence: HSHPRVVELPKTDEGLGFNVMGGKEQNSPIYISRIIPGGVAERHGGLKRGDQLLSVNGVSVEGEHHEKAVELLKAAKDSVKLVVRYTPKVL

T7: TAX-IP2L PDZ-GST fusion protein (Homo sapiens (Human), UniProt Q8TF64 107-197)
T7 construct: Order of GST and PDZ part and limits not seen in the excerpts
T7 sequence: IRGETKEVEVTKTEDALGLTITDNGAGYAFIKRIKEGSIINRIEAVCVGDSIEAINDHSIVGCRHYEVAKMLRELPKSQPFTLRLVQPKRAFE

T8: GST-PDZK1 fusion protein (PDZ domains 2-4) (Homo sapiens, UniProt Q5T2W1 134-457)
T8 construct: not shown: glutathione S-transferase encoded by vector pGEX-3X (Pharmacia)
T8 sequence: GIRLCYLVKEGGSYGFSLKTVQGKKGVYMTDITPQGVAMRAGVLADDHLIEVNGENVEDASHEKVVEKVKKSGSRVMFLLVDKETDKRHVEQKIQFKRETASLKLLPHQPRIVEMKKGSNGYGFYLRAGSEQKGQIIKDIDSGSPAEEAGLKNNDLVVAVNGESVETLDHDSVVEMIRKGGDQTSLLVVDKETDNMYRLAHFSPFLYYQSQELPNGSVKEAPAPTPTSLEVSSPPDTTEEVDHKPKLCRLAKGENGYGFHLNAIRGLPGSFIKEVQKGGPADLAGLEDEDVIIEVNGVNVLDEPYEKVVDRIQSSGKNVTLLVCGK

T9: GST-LIM protein PDZ domain fusion protein (Human, UniProt Q96HC4 2-85)
T9 construct: also called Human LIM protein; not shown: glutathione S-transferase encoded by vector pGEX-3X (Pharmacia)
T9 sequence: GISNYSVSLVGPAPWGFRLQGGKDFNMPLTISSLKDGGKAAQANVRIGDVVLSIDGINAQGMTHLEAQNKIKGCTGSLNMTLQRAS

T10: GST-DLG5 (p-dlg) PDZ domain fusion protein (Human, UniProt Q8TDM6 1343-1583)
T10 construct: also called Human discs large protein p-dlg; not shown: glutathione S-transferase encoded by vector pGEX-3X (Pharmacia)
T10 sequence: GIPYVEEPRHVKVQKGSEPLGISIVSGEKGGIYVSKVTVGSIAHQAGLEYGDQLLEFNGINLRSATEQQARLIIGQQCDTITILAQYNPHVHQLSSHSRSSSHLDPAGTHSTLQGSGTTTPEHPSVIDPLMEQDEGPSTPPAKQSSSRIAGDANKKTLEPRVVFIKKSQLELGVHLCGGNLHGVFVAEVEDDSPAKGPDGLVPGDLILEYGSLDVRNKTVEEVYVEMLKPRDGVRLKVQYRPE

T11: MINT3 PDZ-GST fusion protein
T11 construct: Order of GST and PDZ part and limits not seen in the excerpts
T11 chain: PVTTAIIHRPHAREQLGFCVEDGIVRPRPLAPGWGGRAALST

T12: K559 PDZ-GST fusion protein (Homo sapiens (Human), UniProt Q9Y6V0 4489-4593)
T12 construct: Order of GST and PDZ part and limits not seen in the excerpts
T12 sequence: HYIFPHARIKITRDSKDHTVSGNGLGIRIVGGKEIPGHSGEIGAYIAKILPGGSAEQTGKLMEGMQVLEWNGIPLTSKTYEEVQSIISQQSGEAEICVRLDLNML

B1: CC CKR-1R C-terminal peptide AA41L (peptide)
peptide: Biotin-LERVSSTSPSTGEHELSAGF
notes: Only the last four residues are seen in the excerpts
B2: CD166 C-terminal peptide AA20L, biotinylated (peptide)
peptide: Biotin-DLGNMEENKKLEENNHKTEA
notes: also called CD166 (CD6L)
B3: FceRIb C-terminal peptide AA25L, biotinylated (peptide)
peptide: Biotin-YSATYSELEDPGEMSPPIDL
notes: also called FceRlb; FcεRβI
B4: CD6 C-terminal peptide AA6L, biotinylated (peptide)
peptide: Biotin-SPQPDSTDNDDYDDISAA
B5: CC CKR-4 C-terminal peptide AA44L (peptide)
peptide: Biotin-DTPSSSYTQSTMDHDLHDAL
notes: as for B1
B6: CD97 C-terminal peptide AA14L, biotinylated (peptide)
peptide: Biotin-TSGTGHNQTRALRASESGI
notes: also called CD97 (CD55L)
B7: CC CKR-2 C-terminal peptide AA42L (peptide)
peptide: Biotin-GKGKSIGRAPEASLQDKEGA
notes: as for B1
B8: CDW128A (IL8RA) C-terminal peptide AA29.1L, biotinylated (peptide)
peptide: Biotin-ARHRVTSYTSSSVNVSSNL

target: T1, GEF PDZ-GST fusion protein; assay: A/G assays

Row | binding result | Binder
1 | no binding | B1
2 | no binding | B2
3 | no binding | B3
4 | no binding | B4
5 | no binding | B5
6 | no binding | B6
7 | no binding | B7
8 | no binding | B8

target: T2, GST-KIAA0303 PDZ domain fusion protein; assay: A/G assays

Row | binding result | Binder
9 | no binding | B1
10 | no binding | B2
11 | no binding | B3
12 | no binding | B4
13 | no binding | B5
14 | no binding | B6
15 | no binding | B7
16 | no binding | B8

target: T3, GST-DVL1 PDZ domain fusion protein; assay: A/G assays

Row | binding result | Binder
17 | no binding | B1
18 | no binding | B2
19 | no binding | B3
20 | no binding | B4
21 | no binding | B5
22 | no binding | B6
23 | no binding | B7
24 | no binding | B8

target: T4, GST-TAX-IP40 PDZ domain fusion protein; assay: A/G assays

Row | binding result | Binder
25 | no binding | B1
26 | no binding | B2
27 | no binding | B3
28 | no binding | B4
29 | no binding | B5
30 | no binding | B6
31 | no binding | B7
32 | no binding | B8

target: T13, GST-TIAM1 PDZ domain fusion protein (Homo sapiens (Human), UniProt Q13009 845-931); assay: A/G assays
T13 construct: also called TLAM1; T-lymphoma invasion and metastasis inducing protein 1; not shown: glutathione S-transferase encoded by vector pGEX-3X (Pharmacia)
T13 sequence (Q13009 other isoform, or with tags, fused parts or gaps): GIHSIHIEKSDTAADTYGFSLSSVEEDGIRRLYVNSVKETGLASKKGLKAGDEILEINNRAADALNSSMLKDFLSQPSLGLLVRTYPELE

Row | binding result | Binder
33 | no binding | B1
34 | no binding | B2
35 | no binding | B3
36 | no binding | B4
37 | no binding | B5
38 | no binding | B6
39 | no binding | B7
40 | no binding | B8

target: T5, KIAA0807 (PDZ domain)-GST fusion protein; assay: A/G assays

Row | binding result | Binder
41 | no binding | B1
42 | no binding | B2
43 | no binding | B3
44 | no binding | B4
45 | no binding | B5
46 | no binding | B6
47 | no binding | B7
48 | no binding | B8

target: T14, NSP PDZ-GST fusion protein (Homo sapiens (Human), UniProt Q92743 370-466); assay: A/G assays
T14 construct: The label NSP is not explained in the excerpts
T14 sequence (Q92743 other isoform, or with tags, fused parts or gaps limits assumed): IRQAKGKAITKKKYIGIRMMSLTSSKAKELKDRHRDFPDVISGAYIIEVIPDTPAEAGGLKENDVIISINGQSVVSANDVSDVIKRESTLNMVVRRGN

Row | binding result | Binder
49 | no binding | B1
50 | no binding | B2
51 | no binding | B3
52 | no binding | B4
53 | no binding | B5
54 | no binding | B6
55 | no binding | B7
56 | no binding | B8

target: T6, TAX-IP33 PDZ-GST fusion protein; assay: A/G assays

Row | binding result | Binder
57 | no binding | B1
58 | no binding | B2
59 | no binding | B3
60 | no binding | B4
61 | no binding | B5
62 | no binding | B6
63 | no binding | B7
64 | no binding | B8

target: T7, TAX-IP2L PDZ-GST fusion protein; assay: A/G assays

Row | binding result | Binder
65 | no binding | B1
66 | no binding | B2
67 | no binding | B3
68 | no binding | B4
69 | no binding | B5
70 | no binding | B6
71 | no binding | B7
72 | no binding | B8

target: T8, GST-PDZK1 fusion protein (PDZ domains …); assay: A/G assays

Row | binding result | Binder
73 | no binding | B1
74 | no binding | B2
75 | no binding | B3
76 | no binding | B4
77 | no binding | B5
78 | no binding | B6
79 | no binding | B7
80 | no binding | B8

target: T9, GST-LIM protein PDZ domain fusion …; assay: A/G assays

Row | binding result | Binder
81 | no binding | B1
82 | no binding | B2
83 | no binding | B3
84 | no binding | B4
85 | no binding | B5
86 | no binding | B6
87 | no binding | B7
88 | no binding | B8

target: T10, GST-DLG5 (p-dlg) PDZ domain fusion …; assay: A/G assays

Row | binding result | Binder
89 | no binding | B1
90 | no binding | B2
91 | no binding | B3
92 | no binding | B4
93 | no binding | B5
94 | no binding | B6
95 | no binding | B7
96 | no binding | B8

target: T15, NOS1 PDZ-GST fusion protein (Homo sapiens (Human), UniProt P29475 11-100); assay: A/G assays
T15 construct: Order of GST and PDZ part and limits not seen in the excerpts
T15 sequence (P29475 11-100 limits assumed): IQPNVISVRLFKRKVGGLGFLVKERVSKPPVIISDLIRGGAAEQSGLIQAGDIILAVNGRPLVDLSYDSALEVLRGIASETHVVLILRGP

Row | binding result | Binder
97 | no binding | B1
98 | no binding | B2
99 | no binding | B3
100 | no binding | B4
101 | no binding | B5
102 | no binding | B6
103 | no binding | B7
104 | no binding | B8

Target: T11, MINT3 PDZ-GST fusion protein
Assay: A/G assays

Row | binding result | Binder
105 | no binding | B1
106 | no binding | B2
107 | no binding | B3
108 | no binding | B4
109 | no binding | B5
110 | no binding | B6
111 | no binding | B7
112 | no binding | B8

target: T12, K559 PDZ-GST fusion protein; assay: A/G assays

Row | binding result | Binder
113 | no binding | B1
114 | no binding | B2
115 | no binding | B3
116 | no binding | B4
117 | no binding | B5
118 | no binding | B6
119 | no binding | B7
120 | no binding | B8
